Data on 1 molecule can be found in patent US20230374148A1, “BINDING MOLECULES THAT MULTIMERISE CD45” (UCB BIOPHARMA SRL, priority 2020, published 2023).

The test system of experiment [1] is CD34+ stem cells in PBMCs. Put plainly: Apoptosis of peripheral blood haematopoietic stem cells in PBMCs. In kind it is cell-based, human. The settings on record: 24 hrs, 200-0.00632 nM. Here is the method:
Human whole blood (K2EDTA tubes) was received from one donor (#PR20T386505, from Cambridge Bioscience, UK). PBMCs were isolated from whole blood using pre-filled LeucoSep tubes (Greiner). Whole blood was layered on to the LeucoSep filter and tubes spun (800 g, 15 min, slow acceleration and deceleration, at RT). The buffy coat was extracted and cells washed twice in sterile PBS. PBMC were resuspended in 50 ml complete media (RPMI 1640+2 mM GlutaMAX+1% Pen/Strep, all previously supplied by Invitrogen, +10% Fetal Bovine Serum (FBS), Sigma Aldrich). Cells were counted using a ChemoMetec NucleoCounter NC-3000. 1×10^6 cells per well in 80 μl were then added to each well of a Corning Costar 96-well, cell culture treated, U-shaped-bottom microplate (cat no. 07-200-95).
In a Greiner 96-well non-binding microplate, Fab-X and Fab-Y combination 6294-X/4133-Y, was added to complete media to give a Fab-KD-Fab concentration of 1000 nM. Similarly, 1000 nM stocks of 4133-6294 BYbe and NegCtrl BYbe were prepared in complete media. The microplate was incubated for 1 hr at 37° C., 5% CO2. Following the incubation, Fab-KD-Fab and BYbe reagents were then serially diluted in complete media in a half log dilution series, 7 times to produce an 8-point dose curve. […]
Cells were analysed using the Bio-Rad ZE5 Cell Analyzer. […]

The next experiment deals with Human whole blood. Description: Apoptosis of lymphocytes in whole blood. In kind it is cell-based. The settings on record: 5 hrs. Here is the method: Human whole blood (Lithium heparin tubes) was taken from two donors (HTA #051119-01 & #051119-02) at UCB Pharma Slough, UK according to approved ethical sample collection protocol.
In a Greiner 96-well non-binding microplate, Fab-X and Fab-Y combinations 6294-X/4133-Y and NegCtrl-X/4133-Y, were added to PBS to give a Fab-KD-Fab concentration of 2750 nM. Similarly, a 2750 nM stock of 4133-6294 BYbe in PBS was prepared. The microplate was incubated for 1 hr at 37° C., 5% CO2. Following the incubation, Fab-KD-Fab and BYbe reagents were then serially diluted in PBS 1 in 5, nine times to produce to form a 10-point dose curve.
5 μl of each Fab-KD-Fab or BYbe dilution was added to Nunc™ 96-Well Polypropylene DeepWell™ plates (ThermoFisher). Then 50 μl of blood was added to each well, the plate gently mixed and sealed with a plate seal that allows gas exchange. These cells were then incubated for 5 hrs at 37° C., 5% CO2. Running the assay for a short time period avoids the need to add an anti-coagulant.
Following the incubation, 950 μl of BD Phosflow BD Lyse/Fix (cat no. BD558049, FisherScientific) was added to each well and the plate incubated at 37° C., 5% CO2 for 10 minutes. The plate was then spun at 500 g for 8 min, at 4° C. The buffer was aspirated and 1 ml of FACS buffer (PBS+1% bovine serum albumin (BSA)+0.1% NaN3+2 mM EDTA, Sigma Aldrich) added to wash cells using an Integra Viaflo 96 channel pipette. The plate was spun at 500 g for 8 min, at 4° C. As before, the buffer was aspirated and 1 ml of FACS buffer added to wash cells. This was followed by a slower spin at 250 g for 10 min, at 4° C. Again, buffer was aspirated and 1 ml of FACS buffer added to wash cells.
The plate was re-spun at 500 g for 8 min, at 4° C. Buffer was aspirated leaving the cells in a minimal residual volume for cell-specific antibody staining. 20 μl of cell-specific antibody cocktail (shown in Table 7 below) was added to the wells and the plate incubated for 1 hr at 4° C.
Following the incubation with the antibody cocktail, cells were washed twice as outlined above and buffer aspirated to leave the cells in 20 μl residual buffer. 20 μl of FACS buffer was then added to samples to dilute the cells. Cells were analysed live using the Intellicyt iQue Screener PLUS. Live cell counts were extracted as metrics and graphical representations generated using Graphpad Prism version 8.1 (Graphpad). Asymmetric (five parameter) curve fitting was applied to derive maximal % cell reduction and EC50 values.

B1: 4133-6294 BYbe: anti-CD45 BYbe (Fab-scFv): 4133 Fab HC-G4S linker-6294 scFv heavy chain paired with 4133 light chain (antibody)
heavy: QEQLVESGGGLVQPEGSLTLTCTASGFSFSGNYYMCWVRQAPGKGLEWIGCLYTGSSGSTYYASWAKGRFTISKTSSTTVTLQMTSLTAADTATYFCARDLGYEIDGYGGLWGQGTLVTVSSGQPKAPSVFPLAPCCGDTPSSTVTLGCLVKGYLPEPVTVTWNSGTLTNGVRTFPSVRQSSGLYSLSSVVSVTSSSQPVTCNVAHPATNTKVDKTVAPSTCSKPGGGGSGGGGSEVQLVESGAELARPGASVKMSCKASGYTFTSYTMHWVKQRPGQCLEWIGYINPSSGYTEYNQKFKDKTTLTADKSSSTAYLQLSSLTSEDSAVYYCARVGDGFYPSWLAYWGQGTLVTVSSGGGGSGGGGSGGGGSGGGGSDIQMTQSPKFLLVSAGDRVTITCKASQSVRNDVAWYQQKPGQSPKLLIFYASKRYTGVPDRFTGSGYGTDFTFTISTVQAEDLAVYFCQQDYSSPTTFGCGTKLEIK
light: AQVLTQTPSPVSAVVGGTVSISCQASQSVYNNNNLSWYQQKPGQPPKLLIYDASKLASGVPSRFKGSGSGTQFTLTISGVQCDDAATYYCLGGYYSSGWYFAFGGGTKVVVKRTPVAPTVLIFPPAADQVATGTVTIVCVANKYFPDVTVTWEVDGTTQTTGIENSKTPQNSADCTYNLSSTLTLTSTQYNSHKEYTCKVTQGTTSVVQSFNRGDC
B1: in experiment [1], the “reductions in CD34+ stem cells” value is 53%. Besides, the “reductions in total lymphocytes” value in experiment [1] is recorded as 98%. Further, the Max % reduction was determined as 50% in the experiment on Human whole blood (CD4+, Donor 1, whole blood); 54% in the experiment with Human whole blood (CD4+, Donor 2, whole blood); 34% in the experiment on Human whole blood (Total lymphocytes, Donor 1, whole blood); 44% in the experiment with Human whole blood (Total lymphocytes, Donor 2, whole blood).
